Test results reported in paper PMC3536711, “Directed Evolution of a Model Primordial Enzyme Provides Insights into the Development of the Genetic Code” (PLoS Genetics, 2013).

Biological target: 9-CM, simplified chorismate mutase composed of only nine different amino acids
Experiment: SEC; size-exclusion column after Ni-NTA affinity purification; dimer peak (major peak around 170 mL) isolated for each sample; small fraction of aggregates in the mutant proteins

9-CM, simplified chorismate mutase composed of only nine different amino acids (enzyme)
stoichiometry N: 2
